Measured values published in patent publication US20240043552A1 (Eli Lilly, published 2024).

How the values were obtained:
hEGFR-Fc-biotin = target: T1, hEGFR-Fc-biotin (human, UniProt P00533 25-645, biotin-labelled with EZ-LINK Sulfo-NHS-LC-Biotin); test: sandwich ELISA with mis-matched antigens
T1 construct: Bought (R&D systems); Detection antigen of the sandwich; not shown: Fc of the bought fusion protein
Procedure: (§1) The dual-binding activity of the same synthesized IgG BsAbs is assessed using a sandwich ELISA. […] Sandwich ELISAs are developed for detecting the four different BsAb test articles; one for detecting anti-HER-2/anti-EGFR BsAb activity, one for detecting anti-HER-2/anti-LTPR BsAb activity, one for detecting anti-cMET/anti-EGFR BsAb activity and one for detecting anti-cMET/anti-LTPR BsAb activity. For all ELISAs, clear 96-well round bottom high binding Immulon microtiter plates (Greiner bio-one, cat #650061) are coated overnight at 2-8° C. with 50 μL/well 1 μg/mL hHER-2-Fc or 1 μg/mL hHGFR(cMet)-Fc (both from R&D systems) in a 50 mM Na2CO3 pH 8.3 buffer. The plates are washed 4 times with PBST and blocked with 200 μL/well casein buffer (Pierce) for 1 hr at room temperature. The plates are then washed 4 times with PBST and the parental IgG controls or BsAb IgG test articles are added at 50 μL/well and […] and serially diluted 1:3 down the plate. The controls and test articles are incubated on the plate for 1 hr at room temperature. The plates are then washed 4 times with PBST and 50 μL/well 1 μg/mL hEGFR-Fc-biotin or hLTβR-Fc-biotin (both from R&D systems) is added for 1 hr at room temperature. The plates are then washed 4 times with PBST followed by the addition of a 50 μL/well streptavidin-AP (Jackson Immunoresearch Labs Cat. #016-050-084) diluted 1:1000 in casein buffer. The streptavidin-AP is incubated in each well for 1 hr at room temperature. The plates are then washed 4 times with PBST and 100 μL/well 1-step PNPP substrate is added (Thermo Scientific Cat. #37621). After approximately 5-15 minutes, plates are read for Absorbance (405 nm) using a SPECTRAMAX® UV plate reader (Molecular Devices). Biotin-labeling of the hEGFR-Fc and hLTβR-Fc proteins is performed using EZ-LINK™ Sulfo-NHS-LC-Biotin (Thermo Scientific Cat. #21327) according to the manufacturer's protocol.

hHER-2-Fc = target: T2, hHER-2-Fc (human, UniProt P04626 23-652); test: sandwich ELISA with mis-matched antigens
T2 construct: Bought (R&D systems); Coated on the plate; not shown: Fc of the bought fusion protein
Procedure: as §1

binding result (hEGFR-Fc-biotin) | binding result (hHER-2-Fc) | Binder
no binding | no binding | MetMAb × BHA10 IgG BsAb, CH1/Cκ Wild-Type (AB / H4DR variable domain designs, 7.8.60 CH3, N297Q) (bispecific antibody, Human IgG1; Tested as protein G purified product of four-plasmid co-expression; also called MetMAb × BHA10 Wild-Type) heavy 1: EVQLVESGGGLVQPGGSLRLSCAASGYTFTSYWLHWVRKAPGKGLEWVGMIDPSNSDTRFNPEFKDRFTISADTSKNTAYLQMNSLRAEDTAVYYCATYRSYVTPLDYWGQGTLVTVSSASTKGPSVFPLAPSSKSTSGGTAALGCLVKDYFPEPVTVSWNSGALTSGVHTFPAVLQSSGLYSLSSVVTVPSSSLGTQTYICNVNHKPSNTKVDKKVEPKSCDKTHTCPPCPAPELLGGPSVFLFPPKPKDTLMISRTPEVTCVVVDVSHEDPEVKFNWYVDGVEVHNAKTKPREEQYQSTYRVVSVLTVLHQDWLNGKEYKCKVSNKALPAPIEKTISKAKGQPREPQVYTLPPSREEMTDNQVSLTCLVKGFYPSDIAVEWESNGQPENNYKTTPPVLMSDGSFFLASKLTVDKSRWQQGNVFSCSVMHEALHNHYTQKSLSLSPG light 1: RIQMTQSPSSLSASVGDRVTITCKSSQSLLYTSSQKNYLAWYQDKPGKAPKLLIYWASTRESGVPSRFSGSGSGTDFTLTISSLQPEDFATYYCQQYYAYPWTFGQGTKVEIKRTVAAPSVFIFPPSDEQLKSGTASVVCLLNNFYPREAKVQWKVDNALQSGNSQESVTEQDSKDSTYSLSSTLTLSKADYEKHKVYACEVTHQGLSSPVTKSFNRGEC heavy 2: QVQLVQSGAEVKKPGSSVKVSCKASGYTFTTYYLHWVRYAPGQGLEWMGWIYPGNVHAQYNEKFKGRVTITADKSTSTAYMELSSLRSEDTAVYYCARSWEGFPYWGRGTTVTVSSASTKGPSVFPLAPSSKSTSGGTAALGCLVKDYFPEPVTVSWNSGALTSGVHTFPAVLQSSGLYSLSSVVTVPSSSLGTQTYICNVNHKPSNTKVDKKVEPKSCDKTHTCPPCPAPELLGGPSVFLFPPKPKDTLMISRTPEVTCVVVDVSHEDPEVKFNWYVDGVEVHNAKTKPREEQYQSTYRVVSVLTVLHQDWLNGKEYKCKVSNKALPAPIEKTISKAKGQPRRPRVYTLPPSREEMTKNQVSLVCLVKGFYPSDIAVEWESNGQPENNYKTTPPVLDSDGSFFLYSVLTVDKSRWQQGNVFSCSVMHEALHNHYTQKSLSLSPG light 2: DIQMTQSPSSLSASVGDRVTITCKASQNVGINVAWYQRKPGDAPKSLISSASYRYSGVPSRFSGSGSGTDFTLTISSLQPEDFATYFCQQYDTYPFTFGQGTKVEIKRTVAAPSVFIFPPSDEQLKSGTASVVCLLNNFYPREAKVQWKVDNALQSGNSQESVTEQDSKDSTYSLSSTLTLSKADYEKHKVYACEVTHQGLSSPVTKSFNRGEC
no binding | no binding | MetMAb × BHA10 IgG BsAb, CH1/Cκ design 14.1.2 (bispecific antibody, Human IgG1; also called MetMAb × BHA10 14.1.2) heavy 1: EVQLVESGGGLVQPGGSLRLSCAASGYTFTSYWLHWVRKAPGKGLEWVGMIDPSNSDTRFNPEFKDRFTISADTSKNTAYLQMNSLRAEDTAVYYCATYRSYVTPLDYWGQGTLVTVSSASTKGPSVFPLAPSSKSTSGGTAALGCLVADYFPEPVTVSWNSGALTSGVHTFPAVLQSSGLYSLSSVVTVPSSSLGTQTYICNVNHKPSNTKVDEKVEPKSCDKTHTCPPCPAPELLGGPSVFLFPPKPKDTLMISRTPEVTCVVVDVSHEDPEVKFNWYVDGVEVHNAKTKPREEQYQSTYRVVSVLTVLHQDWLNGKEYKCKVSNKALPAPIEKTISKAKGQPREPQVYTLPPSREEMTDNQVSLTCLVKGFYPSDIAVEWESNGQPENNYKTTPPVLMSDGSFFLASKLTVDKSRWQQGNVFSCSVMHEALHNHYTQKSLSLSPG light 1: RIQMTQSPSSLSASVGDRVTITCKSSQSLLYTSSQKNYLAWYQDKPGKAPKLLIYWASTRESGVPSRFSGSGSGTDFTLTISSLQPEDFATYYCQQYYAYPWTFGQGTKVEIKRTVAAPSVFIFPPSDKQLKSGTARVVCLLNNFYPREAKVQWKVDNALQSGNSQESVTEQDSKDSTYSLSSTLTLSKADYEKHKVYACEVTHQGLSSPVTKSFNRGEC heavy 2: QVQLVQSGAEVKKPGSSVKVSCKASGYTFTTYYLHWVRYAPGQGLEWMGWIYPGNVHAQYNEKFKGRVTITADKSTSTAYMELSSLRSEDTAVYYCARSWEGFPYWGRGTTVTVSSASTKGPSVFPLAPSSKSTSGGTAALGCLVKDYFPEPVTVSWNSGALTSGVHTFPAVLQSSGLYSLSSVVTVPSSSLGTQTYICNVNHKPSNTKVDKKVEPKSCDKTHTCPPCPAPELLGGPSVFLFPPKPKDTLMISRTPEVTCVVVDVSHEDPEVKFNWYVDGVEVHNAKTKPREEQYQSTYRVVSVLTVLHQDWLNGKEYKCKVSNKALPAPIEKTISKAKGQPRRPRVYTLPPSREEMTKNQVSLVCLVKGFYPSDIAVEWESNGQPENNYKTTPPVLDSDGSFFLYSVLTVDKSRWQQGNVFSCSVMHEALHNHYTQKSLSLSPG light 2: DIQMTQSPSSLSASVGDRVTITCKASQNVGINVAWYQRKPGDAPKSLISSASYRYSGVPSRFSGSGSGTDFTLTISSLQPEDFATYFCQQYDTYPFTFGQGTKVEIKRTVAAPSVFIFPPSDEQLKSGTASVVCLLNNFYPREAKVQWKVDNALQSGNSQESVTEQDSKDSTYSLSSTLTLSKADYEKHKVYACEVTHQGLSSPVTKSFNRGEC
no binding | no binding | MetMAb × BHA10 IgG BsAb, CH1/Cκ design 14.3.1.1 (bispecific antibody, Human IgG1; also called MetMAb × BHA10 14.3.1.1) heavy 1: EVQLVESGGGLVQPGGSLRLSCAASGYTFTSYWLHWVRKAPGKGLEWVGMIDPSNSDTRFNPEFKDRFTISADTSKNTAYLQMNSLRAEDTAVYYCATYRSYVTPLDYWGQGTLVTVSSASTKGPSVFPLAPSSKSTSGGTAALGCLVADYFPEPVTVSWNSGALTSGVHTFPAVLQSSGLYSLASVVTVPSSSLGTQTYICNVNHKPSNTKVDKKVEPKSCDKTHTCPPCPAPELLGGPSVFLFPPKPKDTLMISRTPEVTCVVVDVSHEDPEVKFNWYVDGVEVHNAKTKPREEQYQSTYRVVSVLTVLHQDWLNGKEYKCKVSNKALPAPIEKTISKAKGQPREPQVYTLPPSREEMTDNQVSLTCLVKGFYPSDIAVEWESNGQPENNYKTTPPVLMSDGSFFLASKLTVDKSRWQQGNVFSCSVMHEALHNHYTQKSLSLSPG light 1: RIQMTQSPSSLSASVGDRVTITCKSSQSLLYTSSQKNYLAWYQDKPGKAPKLLIYWASTRESGVPSRFSGSGSGTDFTLTISSLQPEDFATYYCQQYYAYPWTFGQGTKVEIKRTVAAPSVFIFPPSDEQLKSGTARVVCLLNNFYPREAKVQWKVDNALQSGNSQESVTEQDSKDSTYSLISTLTLSKADYEKHKVYACEVTHQGLSSPVTKSFNRGEC heavy 2: QVQLVQSGAEVKKPGSSVKVSCKASGYTFTTYYLHWVRYAPGQGLEWMGWIYPGNVHAQYNEKFKGRVTITADKSTSTAYMELSSLRSEDTAVYYCARSWEGFPYWGRGTTVTVSSASTKGPSVFPLAPSSKSTSGGTAALGCLVKDYFPEPVTVSWNSGALTSGVHTFPAVLQSSGLYSLSSVVTVPSSSLGTQTYICNVNHKPSNTKVDEKVEPKSCDKTHTCPPCPAPELLGGPSVFLFPPKPKDTLMISRTPEVTCVVVDVSHEDPEVKFNWYVDGVEVHNAKTKPREEQYQSTYRVVSVLTVLHQDWLNGKEYKCKVSNKALPAPIEKTISKAKGQPRRPRVYTLPPSREEMTKNQVSLVCLVKGFYPSDIAVEWESNGQPENNYKTTPPVLDSDGSFFLYSVLTVDKSRWQQGNVFSCSVMHEALHNHYTQKSLSLSPG light 2: DIQMTQSPSSLSASVGDRVTITCKASQNVGINVAWYQRKPGDAPKSLISSASYRYSGVPSRFSGSGSGTDFTLTISSLQPEDFATYFCQQYDTYPFTFGQGTKVEIKRTVAAPSVFIFPPSDKQLKSGTASVVCLLNNFYPREAKVQWKVDNALQSGNSQESVTEQDSKDSTYSLSSTLTLSKADYEKHKVYACEVTHQGLSSPVTKSFNRGEC
